From US20090149389A1 (PURDUE RESEARCH FOUNDATION, published 2009)

What was measured:
Assay in all cases: cell-based or functional assay
CHK1 (h) = target: T1, CHK1 (h) (human (h), UniProt O14757 1-476)
T1 sequence (looked up): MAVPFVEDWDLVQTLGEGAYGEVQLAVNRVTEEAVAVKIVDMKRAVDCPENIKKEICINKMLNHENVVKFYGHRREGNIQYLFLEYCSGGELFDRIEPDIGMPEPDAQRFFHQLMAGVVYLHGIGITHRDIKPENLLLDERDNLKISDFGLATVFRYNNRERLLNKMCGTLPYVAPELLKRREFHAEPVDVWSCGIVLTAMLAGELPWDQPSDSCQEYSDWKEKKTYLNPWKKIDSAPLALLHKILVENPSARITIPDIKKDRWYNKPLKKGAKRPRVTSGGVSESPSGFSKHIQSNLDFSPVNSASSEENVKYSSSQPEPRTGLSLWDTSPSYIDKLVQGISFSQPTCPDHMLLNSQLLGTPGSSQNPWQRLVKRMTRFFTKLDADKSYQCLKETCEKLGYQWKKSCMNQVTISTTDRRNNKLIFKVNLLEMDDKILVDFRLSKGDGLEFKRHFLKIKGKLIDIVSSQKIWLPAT

MAPKI (h) = MAPKI (h) (human (h), UniProt P28482 1-360, limits assumed)
Src(1-530) (h) = Src(1-530) (h) (human (h), UniProt P12931 1-530)
Tie2 (h) = Tie2 (h) (human (h), UniProt Q02763 771-1124, limits assumed)
Abl (h) = Abl (h) (human (h), UniProt P00519 27-1130, limits assumed)
Lck (h) = Lck (h) (human (h), UniProt P06239 1-509)
SAPK2 a (h) = SAPK2 a (h) (human (h), UniProt Q16539 1-360)
AMPK (r) = AMPK (r) (rat (r), UniProt Q09137 1-552, limits assumed)
KDR (tl) = KDR (tl) (UniProt P35968 790-1356, limits assumed)
EGFR (h) = EGFR (h) (human (h), UniProt P00533 696-1210, limits assumed)
Ret (h) = target: T2, Ret (h) (human (h), UniProt P07949 658-1114, limits assumed)
T2 sequence (looked up): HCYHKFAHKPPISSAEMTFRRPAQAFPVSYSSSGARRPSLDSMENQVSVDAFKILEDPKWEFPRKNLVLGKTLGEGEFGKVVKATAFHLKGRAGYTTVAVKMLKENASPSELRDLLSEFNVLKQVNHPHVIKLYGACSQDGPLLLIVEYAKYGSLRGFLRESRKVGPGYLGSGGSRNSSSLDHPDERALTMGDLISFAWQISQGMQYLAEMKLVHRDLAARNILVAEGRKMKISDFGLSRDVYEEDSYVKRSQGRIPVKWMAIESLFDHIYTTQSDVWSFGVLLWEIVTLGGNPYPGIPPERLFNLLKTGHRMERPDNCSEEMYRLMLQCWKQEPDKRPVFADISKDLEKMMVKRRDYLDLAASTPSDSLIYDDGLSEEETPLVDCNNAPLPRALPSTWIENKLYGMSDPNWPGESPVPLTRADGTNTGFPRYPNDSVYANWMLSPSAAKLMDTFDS

CK2 (h) = CK2 (h) (human (h), UniProt P68400 1-391)
CKIB (h) = CKIB (h) (human (h))
PKCδ (h) = PKCδ (h) (human (h), UniProt Q05655 1-676)
ROCK-1 (h) = ROCK-1 (h) (human (h), UniProt Q13464 17-535, limits assumed)
PDGFRβ (h) = PDGFRβ (h) (human (h), UniProt P09619 558-1106, limits assumed)
PKG1β (h) = target: T3, PKG1β (h) (human (h), UniProt Q13976-2 1-686)
T3 sequence (looked up): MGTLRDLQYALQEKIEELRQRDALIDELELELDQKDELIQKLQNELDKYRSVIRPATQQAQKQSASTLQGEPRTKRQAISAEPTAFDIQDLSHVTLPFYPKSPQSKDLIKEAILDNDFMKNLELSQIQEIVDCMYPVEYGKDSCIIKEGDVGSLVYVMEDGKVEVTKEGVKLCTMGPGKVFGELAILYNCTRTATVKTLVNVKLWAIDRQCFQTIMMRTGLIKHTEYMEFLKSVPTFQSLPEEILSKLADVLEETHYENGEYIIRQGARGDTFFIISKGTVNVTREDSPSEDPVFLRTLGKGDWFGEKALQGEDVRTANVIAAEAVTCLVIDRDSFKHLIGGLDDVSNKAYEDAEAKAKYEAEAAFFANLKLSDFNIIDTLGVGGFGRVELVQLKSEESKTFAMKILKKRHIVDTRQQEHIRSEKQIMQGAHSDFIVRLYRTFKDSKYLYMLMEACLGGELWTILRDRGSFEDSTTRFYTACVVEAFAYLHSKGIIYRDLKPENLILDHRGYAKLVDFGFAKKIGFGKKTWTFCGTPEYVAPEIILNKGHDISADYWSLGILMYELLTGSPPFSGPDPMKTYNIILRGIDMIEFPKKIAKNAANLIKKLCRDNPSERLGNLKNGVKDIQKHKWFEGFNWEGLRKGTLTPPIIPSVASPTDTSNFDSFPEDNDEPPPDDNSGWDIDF

CaMKI (h) = CaMKI (h) (human (h), UniProt Q14012 1-370, limits assumed)
PKB β (h) = PKB β (h) (human (h), UniProt P31751 1-481, limits assumed)
Chain of PKB β (h) (P31751 whole entry): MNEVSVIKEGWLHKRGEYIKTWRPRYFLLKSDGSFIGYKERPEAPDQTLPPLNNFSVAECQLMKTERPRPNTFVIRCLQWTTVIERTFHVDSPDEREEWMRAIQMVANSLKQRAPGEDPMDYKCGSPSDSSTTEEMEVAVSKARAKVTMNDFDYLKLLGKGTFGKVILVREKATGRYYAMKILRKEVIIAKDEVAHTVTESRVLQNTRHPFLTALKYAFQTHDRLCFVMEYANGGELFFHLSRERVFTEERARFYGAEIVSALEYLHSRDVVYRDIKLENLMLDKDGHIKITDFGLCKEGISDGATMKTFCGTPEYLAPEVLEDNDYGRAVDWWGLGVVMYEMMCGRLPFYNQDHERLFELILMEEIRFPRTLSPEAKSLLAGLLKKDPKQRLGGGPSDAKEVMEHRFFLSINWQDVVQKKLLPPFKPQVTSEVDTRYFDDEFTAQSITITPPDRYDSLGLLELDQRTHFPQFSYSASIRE

Chain of ROCK-1 (h) (Q13464 17-535 limits assumed): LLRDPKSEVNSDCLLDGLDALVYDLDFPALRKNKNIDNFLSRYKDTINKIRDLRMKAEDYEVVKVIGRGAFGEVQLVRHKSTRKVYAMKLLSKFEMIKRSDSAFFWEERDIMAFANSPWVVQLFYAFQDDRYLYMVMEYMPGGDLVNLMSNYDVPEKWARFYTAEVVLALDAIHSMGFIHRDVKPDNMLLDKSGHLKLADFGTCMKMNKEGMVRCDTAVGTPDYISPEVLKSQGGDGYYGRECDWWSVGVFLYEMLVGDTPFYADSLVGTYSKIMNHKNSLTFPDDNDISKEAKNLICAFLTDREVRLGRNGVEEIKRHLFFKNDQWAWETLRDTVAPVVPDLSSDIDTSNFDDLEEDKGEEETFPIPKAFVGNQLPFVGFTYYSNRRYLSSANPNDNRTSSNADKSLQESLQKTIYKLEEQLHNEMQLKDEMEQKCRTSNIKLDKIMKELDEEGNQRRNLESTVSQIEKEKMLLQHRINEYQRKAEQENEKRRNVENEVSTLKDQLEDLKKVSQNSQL
Chain of CaMKI (h) (Q14012 whole entry): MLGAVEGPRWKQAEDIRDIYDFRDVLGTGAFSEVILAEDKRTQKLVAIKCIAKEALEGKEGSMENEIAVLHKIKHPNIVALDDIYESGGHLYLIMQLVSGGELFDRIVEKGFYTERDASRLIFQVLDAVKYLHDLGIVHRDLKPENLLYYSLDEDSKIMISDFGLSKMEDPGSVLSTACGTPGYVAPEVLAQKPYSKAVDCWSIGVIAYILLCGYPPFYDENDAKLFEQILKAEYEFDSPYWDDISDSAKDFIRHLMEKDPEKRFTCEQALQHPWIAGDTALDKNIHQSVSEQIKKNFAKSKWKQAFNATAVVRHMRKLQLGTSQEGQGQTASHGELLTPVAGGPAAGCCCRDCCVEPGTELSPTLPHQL
Chain of PDGFRβ (h) (P09619 558-1106 limits assumed): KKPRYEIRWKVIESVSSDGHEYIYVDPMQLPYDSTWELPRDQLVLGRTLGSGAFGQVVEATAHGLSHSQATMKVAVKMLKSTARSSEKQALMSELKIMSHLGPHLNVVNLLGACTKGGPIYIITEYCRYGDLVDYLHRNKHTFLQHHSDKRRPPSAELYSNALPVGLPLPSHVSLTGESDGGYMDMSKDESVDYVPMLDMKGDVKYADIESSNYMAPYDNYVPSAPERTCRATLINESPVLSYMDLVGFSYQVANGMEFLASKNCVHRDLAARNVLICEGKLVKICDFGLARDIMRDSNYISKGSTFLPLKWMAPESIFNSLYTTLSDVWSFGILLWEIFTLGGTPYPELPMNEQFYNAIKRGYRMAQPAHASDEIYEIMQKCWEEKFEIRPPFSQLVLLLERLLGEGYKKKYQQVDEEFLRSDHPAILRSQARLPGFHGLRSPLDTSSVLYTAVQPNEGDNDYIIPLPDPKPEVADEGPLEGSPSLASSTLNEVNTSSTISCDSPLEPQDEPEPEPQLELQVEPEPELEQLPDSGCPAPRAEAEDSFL
Chain of Lck (h) (P06239 whole entry): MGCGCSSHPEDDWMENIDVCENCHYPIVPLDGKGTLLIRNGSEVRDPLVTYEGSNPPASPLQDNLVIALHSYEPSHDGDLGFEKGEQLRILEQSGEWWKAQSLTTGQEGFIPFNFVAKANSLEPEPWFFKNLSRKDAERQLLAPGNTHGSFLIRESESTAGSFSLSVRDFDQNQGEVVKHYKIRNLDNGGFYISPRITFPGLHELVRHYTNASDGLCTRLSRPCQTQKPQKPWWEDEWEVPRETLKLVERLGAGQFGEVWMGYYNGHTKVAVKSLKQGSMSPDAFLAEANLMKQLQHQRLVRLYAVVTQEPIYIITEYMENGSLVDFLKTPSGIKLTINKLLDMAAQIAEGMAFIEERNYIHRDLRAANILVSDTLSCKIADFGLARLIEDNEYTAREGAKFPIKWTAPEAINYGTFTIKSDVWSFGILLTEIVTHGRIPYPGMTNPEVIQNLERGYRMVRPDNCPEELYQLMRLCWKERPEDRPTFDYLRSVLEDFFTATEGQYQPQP
Chain of CK2 (h) (P68400 whole entry): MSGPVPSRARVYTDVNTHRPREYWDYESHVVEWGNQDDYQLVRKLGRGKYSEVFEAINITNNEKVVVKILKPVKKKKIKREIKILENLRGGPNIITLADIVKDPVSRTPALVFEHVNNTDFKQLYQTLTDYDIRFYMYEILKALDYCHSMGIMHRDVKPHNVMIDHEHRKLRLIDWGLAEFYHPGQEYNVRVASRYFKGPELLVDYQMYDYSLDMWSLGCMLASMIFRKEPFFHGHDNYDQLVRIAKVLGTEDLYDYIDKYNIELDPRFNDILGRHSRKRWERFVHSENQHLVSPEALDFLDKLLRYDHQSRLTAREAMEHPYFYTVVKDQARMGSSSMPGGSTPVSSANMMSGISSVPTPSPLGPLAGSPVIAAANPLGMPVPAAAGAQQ
Chain of PKCδ (h) (Q05655 whole entry, stated change not applied): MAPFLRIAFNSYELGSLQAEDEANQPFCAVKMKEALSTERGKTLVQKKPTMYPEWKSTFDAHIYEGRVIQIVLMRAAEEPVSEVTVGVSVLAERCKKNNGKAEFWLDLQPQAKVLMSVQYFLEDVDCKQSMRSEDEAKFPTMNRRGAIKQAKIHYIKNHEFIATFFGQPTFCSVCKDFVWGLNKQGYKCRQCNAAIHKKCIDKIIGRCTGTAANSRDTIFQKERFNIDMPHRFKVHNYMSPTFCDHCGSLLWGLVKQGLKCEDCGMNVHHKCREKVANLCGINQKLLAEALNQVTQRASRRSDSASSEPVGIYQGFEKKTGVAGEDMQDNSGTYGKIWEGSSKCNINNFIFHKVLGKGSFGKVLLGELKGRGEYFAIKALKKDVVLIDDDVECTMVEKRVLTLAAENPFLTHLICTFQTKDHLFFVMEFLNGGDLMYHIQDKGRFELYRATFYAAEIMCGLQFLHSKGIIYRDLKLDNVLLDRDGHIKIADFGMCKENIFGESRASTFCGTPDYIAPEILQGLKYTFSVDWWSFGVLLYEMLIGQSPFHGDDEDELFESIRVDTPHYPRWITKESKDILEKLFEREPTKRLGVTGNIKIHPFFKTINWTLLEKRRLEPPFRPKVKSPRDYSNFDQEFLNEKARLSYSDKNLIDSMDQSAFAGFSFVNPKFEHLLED
Chain of AMPK (r) (Q09137 whole entry): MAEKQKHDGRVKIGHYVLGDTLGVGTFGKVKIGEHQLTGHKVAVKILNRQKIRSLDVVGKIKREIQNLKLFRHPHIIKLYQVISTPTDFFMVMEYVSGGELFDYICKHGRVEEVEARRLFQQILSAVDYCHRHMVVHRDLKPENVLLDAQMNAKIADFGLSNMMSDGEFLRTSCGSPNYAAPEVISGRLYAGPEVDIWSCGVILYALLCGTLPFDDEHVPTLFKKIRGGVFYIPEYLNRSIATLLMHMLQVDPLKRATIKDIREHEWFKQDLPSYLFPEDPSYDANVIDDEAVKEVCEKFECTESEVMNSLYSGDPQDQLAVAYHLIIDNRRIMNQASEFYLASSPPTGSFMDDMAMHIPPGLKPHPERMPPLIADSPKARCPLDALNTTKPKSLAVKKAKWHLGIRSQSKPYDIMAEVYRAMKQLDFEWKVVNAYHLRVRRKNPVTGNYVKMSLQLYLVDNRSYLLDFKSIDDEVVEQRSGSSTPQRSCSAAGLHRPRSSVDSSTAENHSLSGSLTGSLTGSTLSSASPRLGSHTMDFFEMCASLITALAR
Chain of SAPK2 a (h) (Q16539 whole entry): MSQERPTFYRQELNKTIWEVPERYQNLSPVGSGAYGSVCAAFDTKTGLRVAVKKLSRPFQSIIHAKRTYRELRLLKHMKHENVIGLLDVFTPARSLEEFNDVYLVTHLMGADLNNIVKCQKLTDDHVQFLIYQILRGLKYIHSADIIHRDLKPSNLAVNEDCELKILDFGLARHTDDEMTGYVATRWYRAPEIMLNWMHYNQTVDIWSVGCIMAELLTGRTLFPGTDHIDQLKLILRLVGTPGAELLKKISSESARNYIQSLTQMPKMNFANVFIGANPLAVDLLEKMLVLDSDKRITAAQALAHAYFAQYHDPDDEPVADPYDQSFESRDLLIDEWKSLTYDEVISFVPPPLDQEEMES
Chain of MAPKI (h) (P28482 whole entry): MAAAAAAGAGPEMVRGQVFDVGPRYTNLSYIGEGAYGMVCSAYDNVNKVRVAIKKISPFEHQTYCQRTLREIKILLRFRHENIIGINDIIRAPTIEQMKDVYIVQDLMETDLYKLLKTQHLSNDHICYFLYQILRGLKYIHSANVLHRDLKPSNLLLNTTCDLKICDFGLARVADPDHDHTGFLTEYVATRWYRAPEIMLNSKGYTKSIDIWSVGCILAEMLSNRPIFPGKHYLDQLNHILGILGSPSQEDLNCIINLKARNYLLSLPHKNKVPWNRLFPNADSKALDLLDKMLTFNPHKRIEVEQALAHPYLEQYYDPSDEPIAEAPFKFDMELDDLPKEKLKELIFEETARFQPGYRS

Q: What does the source list for WLRRIKAWLRRIKALNRQLGVAA?
A: Profile-1 @ = 30 µm (kinase profiler assay) (CHK1 (h)): 31; Profile-1 @ = 30 µm (kinase profiler assay) (MAPKI (h)): 121; Profile-1 @ = 30 µm (kinase profiler assay) (Src(1-530) (h)): 6; Profile-1 @ = 30 µm (kinase profiler assay) (Tie2 (h)): 17; Profile-1 @ = 30 µm (kinase profiler assay) (Abl (h)): 24; Profile-1 @ = 30 µm (kinase profiler assay) (Lck (h)): 130; Profile-1 @ = 30 µm (kinase profiler assay) (SAPK2 a (h)): 61; Profile-1 @ = 30 µm (kinase profiler assay) (AMPK (r)): 36; Profile-1 @ = 30 µm (kinase profiler assay) (KDR (tl)): 27; Profile-1 @ = 30 µm (kinase profiler assay) (EGFR (h)): 10; Profile-1 @ = 30 µm (kinase profiler assay) (Ret (h)): 117; Profile-1 @ = 30 µm (kinase profiler assay) (CK2 (h)): 114; Profile-1 @ = 30 µm (kinase profiler assay) (CKIB (h)): 52; Profile-1 @ = 30 µm (kinase profiler assay) (PKCδ (h)): 11; Profile-1 @ = 30 µm (kinase profiler assay) (ROCK-1 (h)): 0; Profile-1 @ = 30 µm (kinase profiler assay) (PDGFRβ (h)): 42; Profile-1 @ = 30 µm (kinase profiler assay) (PKG1β (h)): 15; Profile-1 @ = 30 µm (kinase profiler assay) (CaMKI (h)): 9; Profile-1 @ = 30 µm (kinase profiler assay) (PKB β (h)): 18
